Measurements taken from FireProtDB (doi:10.1021/bi962163z).

B1: Annexin A5, P08758 (parent)
chain: MAQVLRGTVTDFPGFDERADAETLRKAMKGLGTDEESILTLLTSRSNAQRQEISAAFKTLFGRDLLDDLKSELTGKFEKLIVALMKPSRLYDAYELKHALKGAGTNEKVLTEIIASRTPEELRAIKQVYEEEYGSSLEDDVVGDTSGYYQRMLVVLLQANRDPDAGIDEAQVEQDAQALFQAGELKWGTDEEKFITIFGTRSVSHLRKVFDKYMTISGFQIEETIDRETSGNLEQLLLAVVKSIRSIPAYLAETLYYAMKGAGTDDHTLIRVMVSRSEIDLFNIRKEFRKNFATSLYSMIKGDTSGDYKKALLLLCGEDD

Variants of: B1
Settings: Homo sapiens; pH 8; Thermal; DSC; Tris 50 mM; KCl 100 mM; reversible: no; structure 1AVR; whole UniProt chain shown

| Variant | Tm | unfolding enthalpy (calorimetric) | unfolding enthalpy (van 't Hoff) |
| --- | --- | --- | --- |
| MAQVLRGTVTDFPGFDGRADAETLRKAMKGLGTDEESILTLLTSRSNAQRQEISAAFKTLFGRDLLDDLKSELTGKFEKLIVALMKPSRLYDAYELKHALKGAGTNEKVLTEIIASRTPEELRAIKQVYEEEYGSSLEDDVVGDTSGYYQRMLVVLLQANRDPDAGIDEAQVEQDAQALFQAGELKWGTDEEKFITIFGTRSVSHLRKVFDKYMTISGFQIEETIDRETSGNLEQLLLAVVKSIRSIPAYLAETLYYAMKGAGTDDHTLIRVMVSRSEIDLFNIRKEFRKNFATSLYSMIKGDTSGDYKKALLLLCGEDD [E17G] | 52.8 °C | 164 kcal/mol | 173 kcal/mol |
